Experimental data taken from the nanobody polyreactivity screen of Harvey et al. (2022).

Assay: yeast display, Sf9 membrane polyspecificity reagent, FACS + sequencing; frameworks hold sequencing errors
Method in brief: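 Using colony PCR, genes from sorted yeast display clones were amplified, then sequenced on MiSeq at 2 × 250 and filtered by CDR length. The clones had been stained with 10% biotinylated, detergent-solubilized Sf9 membrane reagent for 1 hour at 4 °C and sorted by FACS into low and high (top ~1%) gates on anti-HA and streptavidin fluorescence. Polyreactivity labels come from the gate of origin.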

| Sequence | polyreactivity (PSR sort gate) |
| --- | --- |
| QVQLVETGGGIVQAGGSLRLSFAASGFTSDYNAMGWYRQAPGKERELVAAISYSGGSTYYADSVKGRFTISRDNAKNTVYLQMNSLKPEDTAVYYCANGRYGRRYYYWGQGTQVTVSS | high polyreactivity |
| QVQLVESGGRLVQAGGSLRLSCAASGFTFGENAMGWYRQAPGKERELVAAITSGDGTSYADSVKGRFTISRDNAKNTVYLQMNSLKPEDTAVYYCAADGGDELYYSTYDYWGQGTQVTVSS | low polyreactivity |
| QVQLVESGGGLVQAGGSLRLSCAASGSIFAWYGMGWYRQAPGKERELVAAISTAGSTNYADSVKGRFTISRDNAKNTVYLQMNSLKPEDTAVYDCAKKSSWYYPERFDYWGQGTQVTVSS | low polyreactivity |
| QVQLVESGGGLVQAGGSLRLSCAASGRTYQANTMGWYRQAPVKEREFVAAISTSVGSTYYADSVKGRFTISRDNAKNTVYLQMKSLKPEDTALFYCAKASQSWGRDDYYYWGQGTQVTVSS | low polyreactivity |
| QVQLVESGGGLVQAGGSLRLSCAASGTIFRVYAMGRYRQAPGTERELVAAISSSGGSTYYADSVKGRFTISRDNAKTTVYLQMNSLKPEDTAVYYCAAEYDGPYTWVDYYYHYGYWGQGTQVTVSS | low polyreactivity |
| QVQLVESGGGLVQAGGSLRLSCAASGLIFRHYAMGWYRQAPGKERELVAAIDYSGGSTYYADSVKGRFTISRDNAKNTVYLQMNSLKPEDTAVYYCAADYFWLYYSEYGYWGQGTQVTVSS | low polyreactivity |
| QVQLVESGGGLVQAGGSLRLSCAASGRIFVKYAMGWYRQARGKESELVAAISKSGGSTYYADSVKGRFTISRDNAKTTVYLQINILKPEDTAVYYCAADEYYQVSAYDYWGQGTQVTVSS | low polyreactivity |
| QVQLVESGGRLVQAGGSLRLSCAAYGSTFQGYAMGWYRQAPGKERELVADISWSGGSTYYADSVKGRFTISRDNAKNTVYLQMNSLKPEDTAVYYCNAVGYLDFEWGQGTQVTVSS | low polyreactivity |
| QVQLVESGGGLVQAGGSLRLSCAASGSTFPWYVMGGYRQAPGKERELVAAISLSGGRTYYADSVMGRFTISRDNAKNRVYLQMNSLKPEDTAVYYCAAEFKLVSHTYYYWGQGTQVTVSS | low polyreactivity |
| QVQLVESGGGLVQAGGSLRLSCAASGFTFGVYAMGWYRQAPGKERELVAAISRSSGRTYYADSVKGRFTISRDNAKNTVYLQMNSLKPEDTAVYYCAARGYTLSYVDMYYWGQGTQVTVSS | high polyreactivity |
| QVQLVESGGGLVQAGGSLRLSCAASGRIFWDNAMGWYRQAPVKERELVAAISGGASTYADSVKGRFTISRDNAKNTVYLQMNSLKAEDTSVYYCYAFQSPVEEEYYWGQGTQVTVSS | low polyreactivity |
| QVQLVESGGGLVQAGGSLRLSCAASGRIFWSYDMGWYRQAPGKERELVASITSDGSTNYADSVKGRFTISRDNAKNTVYLQMNSLKPEDTAVYYCAARPYQYDPFAQGDGGKYDYWGQGTQVTVSS | low polyreactivity |
| QVQLVESGGGLVQAGGSLRLSCAASGFTFGRYAMGWYRQAPGKERELVAAISWTGGSTYYADSVKGRFTISRDNAKNTVYLQMNSLKPEDTAVYYCAAVGRSKRDGYWGQGTQVTVSS | high polyreactivity |
| QVQLVESGGGLVQAGGTLRLSCAASGITFHRYDMGWYRQAPGKERELVADITWSGGSTYYADSVKGRFTISRDNAKNTVYLQMNSLKPEDTAVYYCAADASTYTYTPYDNWGQGTQVTVSS | low polyreactivity |
| QVQLVESGGGFVQAGGSLRLSCAASGFIFYMFAMGWYRQAPGKERELVAAITSRGGSTFYADSVKGRFTISRDNAKNTVYLQMNSLKPEDTAVYYCAAVRDLYTYRLGYWGQGTQVTVSS | high polyreactivity |
| QVQLVESGGGLVQAGGSLRLSCAASGRIFAWYSMGWYRQAPGEERELVAGISWICGSTYNADSVKGRFTISRDNAKNTVYLQMNSLKPEDTAVYYCNARKKPGSLLDIIGYDYWGQGTQVTVSS | low polyreactivity |
| QVQLVESGGGLVQAGGSLRLSCAASGSIFVPYAMGWYRQAPGKERELVAAISSRGGSTYYADSVKGRFTISRDTAKNTVYLQMNSLKPEDTAVYYCNTEISRNYYWALYGYWGQGTQVTVSS | low polyreactivity |
| QVQLVESGGGLVQAGGSLRLSCAASGSILSYYAMGWYRQAPGKERELVAAISKSGGRTYYADSVKGRFTISRDNAKNTVYLQMNSLKPEDTAVYYCAAPATYKYDYWGQGTQVTVSS | high polyreactivity |
| QVQLVESGGGLVQAGGRLRLSCAASGFTIRWYTMGWYRQAPGKERELVAAISRGGSTNYADSVKGRFTISRDNAKNTVYLQMNSLKPEDTAVYYCAATVYAFTYPYDYWGQGTQVTVSS | high polyreactivity |
| QVQLVESGGGLVQAGGSLRLSCAASGSIFPWYVMGWYRQAPGKERELVAAISWNGGITYADSVKGRFTISRDNAKNTVYLQMNSLKPEDTGVYYCAAYYITYSYIEYDYWGQGTQVSVSS | high polyreactivity |
| QVQLVESGGGLVQAGGSLRLSCAASGSIFRYYAMGWYRQAPGKEREFVARISVSGGSTYYADSVKGRFTISRDNAKNAVYLQMNSLKPEDTAVYYCNTADFRSRYPAMGYWGQGTQVNVSS | low polyreactivity |
| QVQLVESGGGLVQARGSLRLSCAASGRIFNYNAMGWYRQAPGKERELVAAITSSGGSTYYADSVKGRFTISRDNAKNTVYLQMNSLKPEDTAVYYCNALITYSSDYWGQGTQVTVSS | low polyreactivity |

| Sequence | polyreactivity (PSR sort gate) |
| --- | --- |
| QVQLVESGGGLVQAGGSLRLSCAPSGIIFAYYAKGWYRQAPVKERELVASISSGGTTKYADSVKGRFTISRDNAKNTVYLQMNSLKPEDTAVYYCAAEHRWRSWDMDYWGQGTQVTVSS | low polyreactivity |
| QVQLVESGGGLVQAGGSLRLSCAASGSTFGYYAMGWYRQAPGKERELVAAISLGGGSTYYADSVKGRFTISRDNAKNTVYLQMNSLKPEDTEVYYCAARPYVRVKWKFNYWGQGTQVTVSS | low polyreactivity |
| QVQLVESGGGLVQAGGSLRLSCAASGFTFPYYAMGWYRQAPGKERELVATIRSGGSTYYADSVKGRFTISRDNAKNTVYLQMNSLKPEDTAVYYCAKYQVLYSYDKYGYWGQGTQVTVSS | low polyreactivity |
| QVQLVESGGGLVQAGGSLRLSCAASGRTIVYYAMGWYRQAPGKERDFVAAISRSGGRTSYADSVKGRFTISRDNAKNTVYLQMNSLKPEDTAVYYCAAEKRTQPTSREYYWGQGTQVTVSS | high polyreactivity |
| QVQLVESGGGLVQAGGSLRLSCAASGFTFWQYDMGWYRQAPGKERELVAAITSSGSRTYYADSVKGRFTISRDNAKNTVYLQMNSLKPEDTAVYYCNTYLRYWVSYSYDYWGQGTQVTVSS | high polyreactivity |
| QVQLVESGGGLVQAGGSLRLSCAASGLIYFYAMGWYRQAPGKERELVAAISSTGGRTYYADSVKGRFTIARDNAKNTVYLQMNSVKPEDTAVYYCNVLVYNVYTRGYYSYKYYFWGQGTQVTVSS | high polyreactivity |
| QVHLVESGGGLVHAGGSLRLSCAASGRSFTFYDMGWYRQAPGKERELVAAITQDSGSSTYYADSVKGRFTISRDNAKNTVYLQMNSLKPEDTAVYYCNADYPGFSSQNDYWGQGTHVTVSS | low polyreactivity |
| QVQLVETGGGIVQAGGILRLSCAYSGSIFYLYAMGWYRQAPGKERELVAAISTSGGRTHYADSVKGRITISRDNAKNTVYLQMNSLKPEDTAVYYCAAPAARPDGGYGYWGQGTQVTVSS | high polyreactivity |
| QVQLVESGGGLVQAGGSLRLSCAASGSFFHDYSMGWYRQAPGKERELVAAIRWSGGSTYYADSVKGRFTISRDNAKNTVYVQMNSLKPEDTAVYYCNAVTFGRDNVQLVKFGYWGQGTQVTVSS | low polyreactivity |
| QVQHVESGGGLVQAGGSLRLSCAASGRTFTRYTMGWYRQAPGKERELVAAIRFSGGSTYYADSVKGRFTISRDNAKNTVYLQMNSLKPEDTAVYYCAATGGWYKHWFDYWGQGTQVTVSS | low polyreactivity |
| QVQLVDSGGGLVQAGGSLRLSCAASGRTFGYYAMGWYRQAPGKERELVAAISGSGGSTYYADSVKGRFTISRDNAKNTVYLQMNSLIPEDTAVYYCIVYPPYAMDYWGQGTQVTVSS | high polyreactivity |
| QVQLVESGGGLVQAGGSLRLSCAASGSSFYDNAMGWYRQAPAKERELVAAITWDGDGTYYADSVKGRFTISRDNAKNTVYLQMNSLKPEDTAVYYCAADYYLVGFDYYYWYGYWGQGTQVTVSS | low polyreactivity |
| QVQLVESGGGLVQAGGSLRLSCAASGRIFYVYAMGWYRQAPGKERELVAAISWSGGGTYYADSVKGRFTISRDNAKNTVYLQMNSLKPEDTAVYYCATVSGVPPGSHDYWGQGTQVTVSS | low polyreactivity |
| QVQLQESGGGLVQASGSLRLSCASSGNIFPDYVMAWYRLAPGKEREFVANITGGSTTNYADSVKGRFTISRDNAKNTVDLQMNSLTPEDTAVYYCAVNFGTVVLYLYWGQGTQVSVSS | high polyreactivity |
| QVQRVESGGGLVQAGGSLRLSCAASGRTFDSYAMGWYRPAPGKERELVAVITRGVRTYYADSVKGRFTISRDNAKNTVYLQMNSLKPEDTAVYYCAKERYNANYDTSLYDYWGQGTQVTVSS | low polyreactivity |
| QVQLVESGGGLVQAGGSLRLSCAASGLTFPSNAMGWYRQAPGKERELVAAITSVGITYYADSVKGRFTISRDNAKNTVYLQMNSLKPEDTAVYYCNAPPGGGWYARDDNWGQGTQVTVSS | low polyreactivity |
| QVQLVESGGGLGQAGGSLRLSCAASGRTLGIYAMGWYRPAPGTERELVAAITNGDSTHYADSVKGRFTISRDNAKNTVYLQMNSLKPEDTAVYYCAAEDHYEGYGGYYWGQGTQVTVSS | low polyreactivity |
| QVQVVESGVGLVQSGGSLRLSYAASGSIFIPYPMGWYRQAPGKERELVAAISSSGSTYYADSVKGRFTISRDNAKNTFYLQMNSLKPEDTAVYYCAAERHYSYSSYDDWGQGTQVTVSS | low polyreactivity |
| QVQLVESGGGLVQAGGSLRLSCAASGGTFVTNAMGWYRQAPGKERELVAAISYDGGITYYADSVKGRFTISRDNAKNTVYLQMNSLKPEDTAVYYCAAYRRYRNWFNYWGQGTQVTVSS | high polyreactivity |
| QVQLVESGGGLVQAGGSLRLSCAASGRTFYKNTMGWYREAPGKEREMVATISQRGGSTYYADSVKGRFTISRDNAKNTVFLQMNSLKPEDTAVYYCYARHYYIWWRSPTRTAMNYWGQGTQVTVSS | high polyreactivity |
| QDQLVESGGGLVQAGGSLRLSCAASGRTFFWNAMGWYRPAPGKERELVAAITWSGGSTYYADSVKGRFTISRDNAKNTVYLQMNSLKPEDPAVYYCAAVVTDYVWRSEYWGQGTQVTVSS | low polyreactivity |
